Source: article PMC9958104, “Arabidopsis histone H3 lysine 9 methyltransferases KYP/SUVH5/6 are involved in leaf development by interacting with AS1-AS2 to repress KNAT1 and KNAT2” (Communications Biology, 2023)

T1: MBP-KYP recombinant protein (Arabidopsis thaliana, UniProt Q8GZB6 1-624)
T1 construct: KRYPTONITE (KYP/SUVH4), Arabidopsis thaliana; KYP CDS cloned into the pMAL-c5v vector; The purification is not described; source: E. coli BL21(DE3), recombinant protein
T1 sequence (looked up): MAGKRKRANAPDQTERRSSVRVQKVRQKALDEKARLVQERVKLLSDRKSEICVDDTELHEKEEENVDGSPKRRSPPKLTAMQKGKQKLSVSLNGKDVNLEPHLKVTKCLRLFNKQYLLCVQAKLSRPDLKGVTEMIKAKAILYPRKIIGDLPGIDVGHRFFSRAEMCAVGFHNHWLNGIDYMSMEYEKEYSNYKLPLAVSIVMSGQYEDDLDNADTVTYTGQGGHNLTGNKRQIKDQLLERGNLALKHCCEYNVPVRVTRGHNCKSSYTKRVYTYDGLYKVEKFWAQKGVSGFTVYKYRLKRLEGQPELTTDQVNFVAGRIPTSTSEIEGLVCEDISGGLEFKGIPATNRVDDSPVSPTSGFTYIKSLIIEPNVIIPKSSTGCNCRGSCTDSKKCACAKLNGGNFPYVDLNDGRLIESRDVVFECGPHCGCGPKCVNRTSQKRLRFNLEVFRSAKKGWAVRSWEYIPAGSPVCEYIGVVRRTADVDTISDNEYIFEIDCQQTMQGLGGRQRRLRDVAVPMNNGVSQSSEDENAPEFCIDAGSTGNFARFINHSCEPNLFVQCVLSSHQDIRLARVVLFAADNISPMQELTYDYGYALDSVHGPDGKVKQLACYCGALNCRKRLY

B1: maltose-binding protein (MBP) fused AS1 (MBP-AS1) (natural protein, Arabidopsis thaliana, UniProt O80931 1-367, looked up)
chain: MKERQRWSGEEDALLRAYVRQFGPREWHLVSERMNKPLNRDAKSCLERWKNYLKPGIKKGSLTEEEQRLVIRLQEKHGNKWKKIAAEVPGRTAKRLGKWWEVFKEKQQREEKESNKRVEPIDESKYDRILESFAEKLVKERSNVVPAAAAAATVVMANSNGGFLHSEQQVQPPNPVIPPWLATSNNGNNVVARPPSVTLTLSPSTVAAAAPQPPIPWLQQQQPERAENGPGGLVLGSMMPSCSGSSESVFLSELVECCRELEEGHRAWADHKKEAAWRLRRLELQLESEKTCRQREKMEEIEAKMKALREEQKNAMEKIEGEYREQLVGLRRDAEAKDQKLADQWTSRHIRLTKFLEQQMGCRLDRP
notes: source: E. coli BL21(DE3), recombinant protein

Key:
[1] = target: T1, MBP-KYP recombinant protein; test: quartz crystal microbalance (QCM); AffinixQN QCM biosensor; first protein immobilised on the Au electrode until saturation (AS1 for the AS1-KYP pair), second protein injected repeatedly; 50 mM Tris-HCl, 150 mM NaCl, 1 mM DTT, 25 °C; Langmuir equation; three replicates; details: both partners purified
[2] = target: B1; test: as above; details: both partners purified

Kd [1] | Kd [2] | Binder
33.6 µM | – | B1
18.6 µM | 25.3 µM | maltose-binding protein (MBP) fused AS2 (MBP-AS2) (natural protein, Arabidopsis thaliana, UniProt O04479 1-199, looked up, source: E. coli BL21(DE3), recombinant protein) MASSSTNSPCAACKFLRRKCQPECVFAPYFPPDQPQKFANVHKVFGASNVTKLLNELHPSQREDAVNSLAYEADMRLRDPVYGCVGVISLLQHQLRQLQIDLSCAKSELSKYQSLGILAATHQSLGINLLAGAADGTATAVRDHYHHHQFFPREQMFGGLDVPAGNNYDGGILAIGQITQFQQPRAAAGDDGRRTVDPS
